For five substances, stoichiometry N and size of the disulfide-linked covalent unit results are on record in publication doi:10.1101/369454.

The target in test [1] is E74C V144C Ta16.9 (Ta_(CT-ACD)), reduced (wheat (Triticum aestivum)) (UniProt Q41560). In words: native MS.
The target is the same in test [2]. The test can be described thus: dynamic light scattering.
For test [3], the target named is E81C V151C Ps18.1 (Ps_(CT-ACD)), reduced (Pisum sativum) (UniProt P19243). The test can be described thus: dynamic light scattering.
Test [4] deals with K49C W96C Ta16.9 (Ta_(dimer)), oxidized: disulfide bonded at the dimeric interface (wheat (Triticum aestivum)) (UniProt Q41560). The test can be described thus: SEC. In general terms: SEC sorts molecules by how far they enter the pores of the column.
Test [5] has the same target. In words: cross-linking.
For test [6] the target is unchanged. In words: dynamic light scattering.
Test [7] concerns the target K49C W96C Ta16.9 (Ta_(dimer)), reduced (wheat (Triticum aestivum)) (UniProt Q41560). The test can be described thus: dynamic light scattering.
The target in test [8] is Ps18.1, cytosolic class-I small heat-shock protein from Pisum sativum, wild type (Pisum sativum) (UniProt P19243). The test can be described thus: SAXS.
Test [9] shares this target. The test can be described thus: dynamic light scattering.

As to “E74C V144C Ta16.9 (Ta_(CT-ACD)), reduced (from UniProt Q41560 1-151) (natural protein)”, the stoichiometry N in test [1] and in test [2] was 12 in each case.

As to “E81C V151C Ps18.1 (Ps_(CT-ACD)), reduced (from UniProt P19243 1-158) (natural protein)”, the stoichiometry N in [3] was 12. With “K49C W96C Ta16.9 (Ta_(dimer)), oxidized: disulfide bonded at the dimeric interface (from UniProt Q41560 1-151) (natural protein)”, the stoichiometry N in [4] and in test [6] was 12 each time. The substance also came in with a size of the disulfide-linked covalent unit in test [5] of 2 chains.

“K49C W96C Ta16.9 (Ta_(dimer)), reduced (from UniProt Q41560 1-151) (natural protein)” yielded a stoichiometry N in test [7] of 12.

Take “Ps18.1, cytosolic class-I small heat-shock protein from Pisum sativum, wild type (from UniProt P19243 1-158) (natural protein)”: the stoichiometry N in test [8] and in [9] was 12 in each case.

Usually stoichiometry N stands for a count of units in the complex or per binding partner.
